Test results published in patent publication US20240352070A1 (ECOLE POLYTECHNIQUE FEDERALE DE LAUSANNE EPFL, published 2024).
Square brackets hold non-standard residues; d marks the D form. Ends that are not written are not given here. Michael acceptor = not defined here

B1: Non-natural peptide inhibitor D5, KRRY(Y)WMW (peptide)
peptide: KRRY[Michael acceptor]WMW
modifications: not fully specified; reading uncertain
B2: Non-natural peptide inhibitor C10, KHRM(Y)VMW (peptide)
peptide: KHRM[Michael acceptor]VMW
modifications: not fully specified; reading uncertain

What was measured:
[1] = target: human cathepsin S wild-type, amino acids 17 to 331, C-terminal His-tag (CTSS-His) (human, UniProt P25774 115-331); test: cell-based or functional assay
[2] = target: purified cathepsin B (CTSB), purchased from RndSystems (UniProt P07858 80-333); test: cell-based or functional assay

human cathepsin S wild-type, amino acids 17 to 331, C-terminal His-tag (CTSS-His), sequence (P25774 115-331 limits assumed, form in doubt): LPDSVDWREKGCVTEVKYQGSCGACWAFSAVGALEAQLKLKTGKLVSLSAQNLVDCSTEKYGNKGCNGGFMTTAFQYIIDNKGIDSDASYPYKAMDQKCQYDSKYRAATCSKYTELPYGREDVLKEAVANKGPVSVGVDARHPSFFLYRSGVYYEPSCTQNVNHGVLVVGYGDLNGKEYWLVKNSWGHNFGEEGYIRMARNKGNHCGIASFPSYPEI

Row | Binder | IC50, CTSS activity, FRET assay dose-response [1] [nM] | IC50, CTSB activity, FRET assay dose-response [2] [nM]
1 | B1 | 86600 | 61.9
2 | B2 | 49.3 | 
